Test results reported in paper doi:10.1101/2020.05.05.078790.

Biological target: HLA-E*0103 heavy chain-β2M complex (human)
Assay: ELISA

| Substance | percent of the VL9 signal after background subtraction [%] |
| --- | --- |
| BZLF1 (…) (peptide) | 41 |
| RL9SIV (…) (peptide) | 22 |
| RL9HIV (…) (peptide) | 43 |
